Measurements reported in the nanobody polyreactivity screen of Harvey et al. (2022).

Assay: yeast display, Sf9 membrane polyspecificity reagent, FACS + sequencing; frameworks hold sequencing errors
Method in brief: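 Sorting gates, low and high (top ~1%), were placed on anti-HA fluorescence to track expression and on streptavidin fluorescence to track reagent binding. A clone's polyreactivity label is taken from the gate it came out of. The reagent was 10% biotinylated, detergent-solubilized Sf9 membrane, applied for 1 hour at 4 °C to galactose-induced yeast display cells.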

Sequence | polyreactivity (PSR sort gate)
QVQLVESGGGLVQAGGSLRLSCASSGSTIGRNAMGWYRQAPGKERELVASISSGGSTYYADSVKGRFTISRDNAKNTVYLQMESLKPEDTAVYYCARRAYQNWYNYWGQGTQVTVAS | high polyreactivity
QVQLVESGGGLVQAGGSLRLSCAASGFTFDIYGMGWYRQAPGKERELVASITSRSARTNYADSVKGRFRISRDNAMNTVYLQMNSLKPEDSAVYYCAADPYTGYTYYWGQVTQVTVSS | high polyreactivity
QVQLVESGGGLVQAGGILRLSCAASGFIFKSYAMGWYRQAPGKERELVAGITRRGGSTYYADSVKGRFTISRDNAKNTVYLQMNILKPEDTAVYYCNAGRKTADYDFLGQGTQVTVSS | high polyreactivity
QVQLVESGGGLVQAGGSLRLSCAASGRIFGYTMGWYRQAPGKERELVAAISKSGGSTYYADSVKGRFTISRDNAKNTVYLQMNSLKPEDTAVYYCNKPQRILYDYWGQGTQVTVSS | high polyreactivity
QVQLVESGGGLVQAGGSLRLSCAASGFTFVSNAMGWYRQAPGKERELVAAISGSGGSTYYADSVKGRFTISRDNAKNTVYLQMNSLKPEDTAVYYCAKGSRSYVRKMDYWGQGTQVTVSS | low polyreactivity
QVQLVESGGGLVQAGGSLRLSCAASGGTFSTSAMGWYRQAPGKERELVAAISLSGVRTYYADSVKGRFTISRDNAKNTVYLQMNSLKAEVTAVDYCATRPYSPWRLYYWGQGTQVTGSS | high polyreactivity
QVQLVESGGGLVQAGGSLRLSCAASGIILPVYAMGWYRQAPGKERELVAAIRWCSGRTYYADSVKGRFTISRDNAKNTVFLQMNSLKPEDTAVYYCAKDGGQRKYDYWGQGTQVTVSS | low polyreactivity
QVQLVESGGGLVQAGGSLRLSCAASGRTFDYYAMGWYRQAPRKERELVAAISSGGSTNYADSVKGRFTISRDNAKNTVYLQMNSLKPEATAVYYCAVSGIDDVKYDYWGQGTQVTVSS | low polyreactivity
QVQLVESGGGLVQAGGSLRLSCAASGSTSYVYAMGWYRQAPGKERELVAAISGSGGRTYYADSVKGRFTISRDNAKNTVYLQMNSLKPEDTAVYYCAADYIFRRYPVGGIYDYDYWGQGTQVTVSS | high polyreactivity
QVQLVESGGGLVQAGGSLRLSCAASGSTFIGNAMGWYRQAPGKERELVAAITSSGGSTYYADSVKGRFTISRDNAKNTVYLQMNSLKPEDTAVYYCAAKSRRTRRSYYWGQGTQVTVSS | high polyreactivity
QVQLVESGGGLVQAGGSLGLSCAASGITFYTYPMGLYRQAPGKERELVAAISRRGGSTYYADSVKGRFTISRDNAKNTVYLHLNSLKPEDTAVYYCNAVADCYSGFDGYYYWGQGTQVTVSS | high polyreactivity
QVQHVESGGGLVQARGSLRLSCAASGSTIKHYGMGWYRHAPGKERELVAAITSGGRTYYADSVKGRFTISRDNAKNTVYLQMNSLKQDDSAGYYCAALRVQQVKSYYYWGQGTQVTVSS | high polyreactivity
QVQLVESGGGLVQAGGSLRLSCAASGLAFVFNAMGWYRQAPGKERELVAAISSGDDTNYADSVKGRFTISRDNAKNTVYLQMNSLKPEDTAVYNCAKTSDPIKRPYYYWGQGTQVTVSS | low polyreactivity
QVQLVESGGGLVQAGGSLRISCAPSGRTFGINAMGWYRQAPGKERELVAVISFGDGGTYYADSVKGRFTISRDNAKNTVYLQMNSLKPEDTAVYYCATDYQSTSVWGGHFVINPYDYWGQGTQVTVSS | low polyreactivity
QVQLVESGGGLVQAGCSLRLICAASGIIFVGYAMGWYRQAPGKDRELVAGINSGGSTNYADSVKGRFTISRDNAKNTVYLQMNSLKPEDTAVYYCAAYPYYYYGYDYWGQGTQVTVSS | low polyreactivity
QVQLVESGGGLVQAGGSLRLSCAASGRTFLLNAMGWYRQAPGKERELVAAISRGGSTYYADSVKGRFTISRDNAKNTVYLQMNSLKPEDTAVYYCAARFWISHTHWDAGDYWGQGTQVTVSS | low polyreactivity
QVQLVESGGGLVQAGGSLRLSSADSGFIFSYYAMGWYRQAPGKERELVAAISSVGSTNYADSVKGRFTISRDNAKNTVYLQMNSLKPEDTAVYYCAARYLWYKYYYWGQGTQVTVSS | high polyreactivity
QVQLVESGGGLVQAGGSLRLSCASSGFNFVYYSMGRYRQAPGKEREFVAAITERGGSTDYADSVKGRFTISRDHAKNTVYFQMNSLKPEDTAVYYCIARDVTLWDDVYQQDGSGYWGQGTQVTVSS | low polyreactivity
QVQLVESGGGLVQAGGSLRLSCAASGSIFHRYAMGWYRQAPGKERELVAAISRRGGSTYYADSVKGRFTISRDNAKNTVYLQMNSLIPVDTAVYYCNASLAGSSGRNRFEYWGQGTQVTVSS | high polyreactivity
QVQLVESGGGLVQAGGILRLSCAASGSIVSYYDMGWYRQAPGKERELVAAITYTGGSTYYADSVKGRFTISRDNAKNTVYLQMNSLKPEDTEVYYCAAQWTIYPLFNSWGQGNQVTVSS | low polyreactivity
QVQLVESAGGLVQAGGSLRLSCDASGRILKYYDIGWYRQAPGKEWELVAAISVSGTSTYYADSVKGRFTISRDNAKNTVYLQMNSLKPEDTAVYYCATATGRYSFDYWGQGTQVTVSS | low polyreactivity
QVQLVESGGGLVQAGGSLRLSCAASGSTFSYNAMGWYRRAPGKERELVAAISWNGDSTYADSVKGRFTISRDNAKNTVYLQMNSLKPEDTAVYYCAKETIITPGRRKSPRYLHGYWGQGTQVTVSS | low polyreactivity

Sequence | polyreactivity (PSR sort gate)
QVQLVESGGGLVQAGGSLRLSCAASGSILYSNMGWYRQAPGKERELVAAITYSGGRTYYADSVKGRFTISRDNAKNTVYLQMNSLKPEDTAVYYCAARLATYGASTYYYWGQGTQVTVSS | high polyreactivity
QVQLVESGGGLVQAGGSLRLRCAASGRTFLTNTLGWYRQAPGKERELVAAISSGGSTKYADSVKGRFTISRDNAKNTVYLQMNSLKTEDTAVYYCAATGWRYGYKYYYWGQGTQVTVSS | high polyreactivity
QVQLVESGGGLVQAGGSLRLSCAASGLIFYSYAMGWYRQAPGKERELVAAITGGGSTNYADSVKGRFTISRDNAKNTVYLQMNSLKPEDTAVYYCAAAFTLRKYDYWGQGTQVTVSS | low polyreactivity
QVQLQESAVLVQAGGSLRLSCPASGSISGRNVMGRYRQAQAKQREFVASITDGSSTNYADSVKGRFTISRDNAKNTVYLQMNSLNPKDTAVYYCAAYAQRAKSFGYWGRGTQVTVSS | low polyreactivity
QVQLVESGGGLVQAGGSLRISCAASGRTFGPYAMGWYIQAPGKEREFVAAISYSGGSTYYADSVKGRFTISRDNAKNTVYLQMNSLKPEDTAVYYCAVDIDSNSGTRDYWGQGTQVTVSS | low polyreactivity
QVQLEESGGGLVQAGGSLRLSCAASGFTFRVYAMGWYRQAPGKERELVAAISSGGSTNYADSVKGRFTISRDNAKNTVYLQMNSLKPEDTAVYYCAARQRYYSERPQYSGLYYWGQGTQVTVSS | high polyreactivity
QVQLVESGGGLVQAGGSLRLSCAASGSISFINAMGWYRQAPGKERELVAAITPGASTNYADSVKGRFTISRDNAKNTVYLQLNSLKPEDTAVYFCAAGWVSFEDWVLGSYYEYDYWGLGTQVTVSS | low polyreactivity
QVQLVESGGGLVQAGGSLRLSCAASGSTFYHYAMGWYRQAPGKERELVAAISTGGSTYYADSVKGRFTISRDNAKNTVYLQMNSLKPEDTAVEYCNARYIGGYGYWGQGTQVTVSS | low polyreactivity
QVQLVESGGGLVQAGGSLRLSCAASGSIFSVYAMGWYSQAPGKEREVVAASTSSGGSTYYADSVKGRFTISRDNAKNTVHFQMNSLKPEDTAVYYCAADKYVRRLSWYRYGYWGQGTQVTVSS | high polyreactivity
QVQLVESGGGLVQAGGSLRLSCAASGIIFRRYAMGWYRPEPGLVRELVAAISASGVRTYYADSVKGRFTISRDNAKNTVYFQMNSLKPEDTAVYYCAAATKRVEYEYWGQGTQVTVSS | high polyreactivity
QVQLVESGGGLVQAGGSLRLSCAASGRTFWYYAMGWNRQAPGKERELVAAITRGTSTYADSVKGRFTISRDNAKNTVYLQMNSLKPEDTAVFYCAADTWVTRNSRYDYWGQGTQVTVSS | high polyreactivity
QVQLVESGGGLVQAGGSLRLSCAASGNTFDYYTMGWYRQAPGKERELVAAISWNGGSTYYADSVKGRFTISRDNAKTTVYLQMNSLKPEDSAVYYCAVLYRSEYDWGQGTQVTVSS | low polyreactivity
QVQLVDSGGGLVQAGGSLRLTCAASGTFYYYAMGWNRQAPGKERELVAAISYSGGRTYYADSVKGRFTISRDNAKNTVYLQMNSLKPEDTAFYYCNTDARSKKYIFDFDYWGQGTQVTLSS | high polyreactivity
QVQIVESGGGLVQAGGSLRLSWASSGRIFYSNAMGRYRQAPGKERELVAAISYSGDSTYYADSVQGRFTISRDNAKNTGYFQMNSLKPEVTAVYYCAAETYVGEDYWGQGTQETVSS | high polyreactivity
QVQLVESVGGLVQAGGSLRLICAASGSIFDLNAMGWYRQAPGKEREFVAAISSGGGTYYADSVKGRFTISRDNAKNTVYLQKNSLKPEDTAVYYCAFELPELYYYFAYEYWGQGTQVTVSS | high polyreactivity
QVQLVESGGGLVQAGGSLRLSCAASGRNFRYNAMGWYRQAPGKERELVAAISSGDRTNYADSVKGRFTISRDNAKNTVYLQKKSLKPVDTAVYYCAAPTDSYYEFDYWGQGTQGTVSS | low polyreactivity
QVQLVESGGGLVQAGGSLRLSSAASGFILDTNAMGWYRQAPGKERELVSAITKRGIRTYYADSVKGRFTISRDNAQNTVYLQMNSLKPEDTAVYYCNAQRPIATVWHRYDSWGQGTQVTVSS | high polyreactivity
QVQLVESGGGLVQAGGSLRLSCAASGRNFGYNAMGWYRQAPGKERELVAAITTSGGSTYYADSVKGRFTISRDNAKNTVYLQMNSLKPEDTAVYYCARDSLQVLYPYASDDSWGQGTQVTVSS | low polyreactivity
QVQLVESGGGLVQAGGSLRLSCAASGRIFTTNAMGWYRQAPGKERELVAAITYSGGTTYYADSVKGRFTISRDNAKNTVYLQMNSLKPEDTAVYYCAADVKFSTPYDYWGQGTQVTVSS | low polyreactivity
QVQLVESVVGLVQAGGILRLSCSASGSTLPWYAMGWYRQAPGKERELVAAISYRGGSTYYADSVKGRFTISRDNAKNTVYLQLNSLKPEDTAVYYCAARFYFQPLWYKGYYWGQGTQVTVSS | high polyreactivity
QVQLVESGGGLVQAGGSLRLSCAASGSIFTYYAMGWYRQAPGKERELVAAINSGGRTNYADSVKGRFTISRDNAKNTVYLQMNSLKPEDTAVYYCAKYGVLQYGYWGQGTQVTVSS | low polyreactivity
